In patent US20130143798A1 (Novo Nordisk, published 2013):
Numbered stars: 1 amine (or outer) side, 2 acyl side, 3 side chain; on linkers, the order of the positions; unused ones are H or OH. Square brackets hold non-standard residues; d marks the D form. Side chains are listed from the residue outwards. Ends that are not written are not given here. * marks the point of attachment. C18 diacid = O=C(O)CCCCCCCCCCCCCCCCC(=O)*; γGlu = O=C(O)[C@H](CCC(=O)[*:2])N[*:1]; AEEA = NCCOCCOCC(=O)O; Aib = CC(C)(N)C(=O)O

B1: N^ε24-([2-[2-[2-[[2-[2-[2-[[(4S)-5-hydroxy-4-[(18-hydroxy-18-oxooctadecanoyl)amino]-5-oxopentanoyl]amino]ethoxy]ethoxy]acetyl]amino]ethoxy]ethoxy]acetyl]) … (peptide)
peptide: H[Aib]QGTFTSDYSKYLDERRAQDFVK([AEEA-AEEA-γGlu-C18 diacid])WLLNT-NH2
modifications: N-terminus assumed
SMILES: CC(C)C[C@H](NC(=O)[C@H](Cc1ccc(O)cc1)NC(=O)[C@H](CCCCN)NC(=O)[C@H](CO)NC(=O)[C@H](Cc1ccc(O)cc1)NC(=O)[C@H](CC(=O)O)NC(=O)[C@H](CO)NC(=O)[C@@H](NC(=O)[C@H](Cc1ccccc1)NC(=O)[C@@H](NC(=O)CNC(=O)[C@H](CCC(N)=O)NC(=O)C(C)(C)NC(=O)[C@@H](N)Cc1c[nH]cn1)[C@@H](C)O)[C@@H](C)O)C(=O)N[C@@H](CC(=O)O)C(=O)N[C@@H](CCC(=O)O)C(=O)N[C@@H](CCCNC(=N)N)C(=O)N[C@@H](CCCNC(=N)N)C(=O)N[C@@H](C)C(=O)N[C@@H](CCC(N)=O)C(=O)N[C@@H](CC(=O)O)C(=O)N[C@@H](Cc1ccccc1)C(=O)N[C@H](C(=O)N[C@@H](CCCCNC(=O)COCCOCCNC(=O)COCCOCCNC(=O)CC[C@H](NC(=O)CCCCCCCCCCCCCCCCC(=O)O)C(=O)O)C(=O)N[C@@H](Cc1c[nH]c2ccccc12)C(=O)N[C@@H](CC(C)C)C(=O)N[C@@H](CC(C)C)C(=O)N[C@@H](CC(N)=O)C(=O)N[C@H](C(N)=O)[C@@H](C)O)C(C)C
B2: N^ε17-([2-[2-[2-[[(4S)-5-hydroxy-4-[(18-hydroxy-18-oxooctadecanoyl)amino]5-oxopentanoyl]amino]ethoxy]ethoxy]acetyl]amino]ethoxy]ethoxy]acetyl]]) … (peptide)
peptide: HSQGTFTSDYSKYLDSK([AEEA-AEEA-γGlu-C18 diacid])RAQDFVQWLLNT
B3: N^ε24-([2-[2-[2-[[(4S)-5-hydroxy-4-[(18-hydroxy-18-oxooctadecanoyl)amino]5-oxopentanoyl]amino]ethoxy]ethoxy]acetyl]amino]ethoxy]ethoxy]acetyl]])[Lys^24,Leu^27,T … (peptide)
peptide: HSQGTFTSDYSKYLDSRRAQDFVK([AEEA-AEEA-γGlu-C18 diacid])WLLTT
B4: N^ε24-([2-[2-[2-[[(4S)-5-hydroxy-4-[(18-hydroxy-18-oxooctadecanoyl)amino]5-oxopentanoyl]amino]ethoxy]ethoxy]acetyl]amino]ethoxy]ethoxy]acetyl]]) … (peptide)
peptide: HSQGTFTSDYSRYLDSRRAQDFVK([AEEA-AEEA-γGlu-C18 diacid])WLLNT
B5: N^α([Glu^16,Gln^17,Arg^20]Glucagonyl) … (peptide)
peptide: HSQGTFTSDYSKYLDEQRARDFVQWLMNTK([AEEA-AEEA-γGlu-C18 diacid])-NH2
modifications: N-terminus assumed
SMILES: CSCC[C@H](NC(=O)[C@H](CC(C)C)NC(=O)[C@H](Cc1c[nH]c2ccccc12)NC(=O)[C@H](CCC(N)=O)NC(=O)[C@@H](NC(=O)[C@H](Cc1ccccc1)NC(=O)[C@H](CC(=O)O)NC(=O)[C@H](CCCNC(=N)N)NC(=O)[C@H](C)NC(=O)[C@H](CCCNC(=N)N)NC(=O)[C@H](CCC(N)=O)NC(=O)[C@H](CCC(=O)O)NC(=O)[C@H](CC(=O)O)NC(=O)[C@H](CC(C)C)NC(=O)[C@H](Cc1ccc(O)cc1)NC(=O)[C@H](CCCCN)NC(=O)[C@H](CO)NC(=O)[C@H](Cc1ccc(O)cc1)NC(=O)[C@H](CC(=O)O)NC(=O)[C@H](CO)NC(=O)[C@@H](NC(=O)[C@H](Cc1ccccc1)NC(=O)[C@@H](NC(=O)CNC(=O)[C@H](CCC(N)=O)NC(=O)[C@H](CO)NC(=O)[C@@H](N)Cc1c[nH]cn1)[C@@H](C)O)[C@@H](C)O)C(C)C)C(=O)N[C@@H](CC(N)=O)C(=O)N[C@H](C(=O)N[C@@H](CCCCNC(=O)COCCOCCNC(=O)COCCOCCNC(=O)CC[C@H](NC(=O)CCCCCCCCCCCCCCCCC(=O)O)C(=O)O)C(N)=O)[C@@H](C)O
B6: N^ε24([2-[2-[2-[[(4S)-5-hydroxy-4-[(18-hydroxy-18-oxooctadecanoyl)amino]5-oxopentanoyl]amino]ethoxy]ethoxy]acetyl]amino]ethoxy]ethoxy]acetyl]])[Glu^21,Lys^24,Le … (peptide)
peptide: HSQGTFTSDYSKYLDSRRAQEFVK([AEEA-AEEA-γGlu-C18 diacid])WLLNT
B7: N^α([Leu^27]Glucagonyl) … (peptide)
peptide: HSQGTFTSDYSKYLDSRRAQDFVQWLLNTK
modifications: C-terminal Lys (position 30): N-epsilon acylated with the substituent printed in the name
B8: N^ε24-([2-[2-[2-[[(4S)-5-hydroxy-4-[(18-hydroxy-18-oxooctadecanoyl)amino]5-oxopentanoyl]amino]ethoxy]ethoxy]acetyl]amino]ethoxy]ethoxy]acetyl]]) … (peptide)
peptide: HSQGTFTSDYSKYLDTRRAQDFVK([AEEA-AEEA-γGlu-C18 diacid])WLLST
B9: N^ε24-([2-[2-[2-[[(4S)-5-hydroxy-4-[(18-hydroxy-18-oxooctadecanoyl)amino]5-oxopentanoyl]amino]ethoxy]ethoxy]acetyl]amino]ethoxy]ethoxy]acetyl]])[Lys^24,Leu^27,S … (peptide)
peptide: HSQGTFTSDYSKYLDSRRAQDFVK([AEEA-AEEA-γGlu-C18 diacid])WLLST
B10: N^α-(N^ε24-[2-[2-[2-[[(4S)-5-hydroxy-4-[(18-hydroxy-18-oxo-octadecanoyl)amino]-5-oxo-pentanoyl]amino]ethoxy]ethoxy]acetyl][D-Ser^2, Lys^20]Glucagonyl) Lysinyl … (peptide)
peptide: H[dS]QGTFTSDYSKYLDSRRAKDFVQWLMNTK-NH2
modifications: not fully specified
B11: N^ε24-([2-[2-[2-[[(4S)-5-hydroxy-4-[(18-hydroxy-18-oxooctadecanoyl)amino]5-oxopentanoyl]amino]ethoxy]ethoxy]acetyl]amino]ethoxy]ethoxy]acetyl]])[D-Ser^2,Glu^16, … (peptide)
peptide: H[dS]QGTFTSDYSKYLDERRAQDFVK([AEEA-AEEA-γGlu-C18 diacid])WLLNT
B12: N^ε29-([2-[2-[2-[[(4S)-5-hydroxy-4-[(18-hydroxy-18-oxooctadecanoyl)amino]5-oxopentanoyl]amino]ethoxy]ethoxy]acetyl]amino]ethoxy]ethoxy]acetyl]])[Leu^27,Lys^29]G … (peptide)
peptide: HSQGTFTSDYSKYLDSRRAQDFVQWLLNK([AEEA-AEEA-γGlu-C18 diacid])
modifications: not fully specified; printed as N^ε29-([2-[2-[2-[[(4S)-5-hydroxy-4-[(18-hydroxy-18-oxooctadecanoyl)amino]5-oxopentanoyl]amino]ethoxy]ethoxy]acetyl]amino]ethoxy]ethoxy]acetyl]])[Leu^27,Lys^29]Glucagon
B13: N^ε18-([2-[2-[2-[[(4S)-5-hydroxy-4-[(18-hydroxy-18-oxooctadecanoyl)amino]5-oxopentanoyl]amino]ethoxy]ethoxy]acetyl]amino]ethoxy]ethoxy]acetyl]])[Lys^18,Leu^27]G … (peptide)
peptide: HSQGTFTSDYSKYLDSRK([AEEA-AEEA-γGlu-C18 diacid])AQDFVQWLLNT
B14: N^α([Glu^16,Gln^17,Ala^18,Arg^20]Glucagonyl) … (peptide)
peptide: HSQGTFTSDYSKYLDEQAARDFVQWLMNTK([AEEA-AEEA-γGlu-C18 diacid])-NH2
modifications: N-terminus assumed
SMILES: CSCC[C@H](NC(=O)[C@H](CC(C)C)NC(=O)[C@H](Cc1c[nH]c2ccccc12)NC(=O)[C@H](CCC(N)=O)NC(=O)[C@@H](NC(=O)[C@H](Cc1ccccc1)NC(=O)[C@H](CC(=O)O)NC(=O)[C@H](CCCNC(=N)N)NC(=O)[C@H](C)NC(=O)[C@H](C)NC(=O)[C@H](CCC(N)=O)NC(=O)[C@H](CCC(=O)O)NC(=O)[C@H](CC(=O)O)NC(=O)[C@H](CC(C)C)NC(=O)[C@H](Cc1ccc(O)cc1)NC(=O)[C@H](CCCCN)NC(=O)[C@H](CO)NC(=O)[C@H](Cc1ccc(O)cc1)NC(=O)[C@H](CC(=O)O)NC(=O)[C@H](CO)NC(=O)[C@@H](NC(=O)[C@H](Cc1ccccc1)NC(=O)[C@@H](NC(=O)CNC(=O)[C@H](CCC(N)=O)NC(=O)[C@H](CO)NC(=O)[C@@H](N)Cc1c[nH]cn1)[C@@H](C)O)[C@@H](C)O)C(C)C)C(=O)N[C@@H](CC(N)=O)C(=O)N[C@H](C(=O)N[C@@H](CCCCNC(=O)COCCOCCNC(=O)COCCOCCNC(=O)CC[C@H](NC(=O)CCCCCCCCCCCCCCCCC(=O)O)C(=O)O)C(N)=O)[C@@H](C)O
B15: N^ε16-([2-[2-[2-[[(4S)-5-hydroxy-4-[(18-hydroxy-18-oxooctadecanoyl)amino]5-oxopentanoyl]amino]ethoxy]ethoxy]acetyl]amino]ethoxy]ethoxy]acetyl]]) … (peptide)
peptide: HSQGTFTSDYSKYLDK([AEEA-AEEA-γGlu-C18 diacid])RRAQDFVQWLLNT

These binders were tested against glucagon receptor (UniProt P47871 26-477, limits assumed) (assay: cell-based or functional assay).
Chain of glucagon receptor (P47871 26-477 limits assumed): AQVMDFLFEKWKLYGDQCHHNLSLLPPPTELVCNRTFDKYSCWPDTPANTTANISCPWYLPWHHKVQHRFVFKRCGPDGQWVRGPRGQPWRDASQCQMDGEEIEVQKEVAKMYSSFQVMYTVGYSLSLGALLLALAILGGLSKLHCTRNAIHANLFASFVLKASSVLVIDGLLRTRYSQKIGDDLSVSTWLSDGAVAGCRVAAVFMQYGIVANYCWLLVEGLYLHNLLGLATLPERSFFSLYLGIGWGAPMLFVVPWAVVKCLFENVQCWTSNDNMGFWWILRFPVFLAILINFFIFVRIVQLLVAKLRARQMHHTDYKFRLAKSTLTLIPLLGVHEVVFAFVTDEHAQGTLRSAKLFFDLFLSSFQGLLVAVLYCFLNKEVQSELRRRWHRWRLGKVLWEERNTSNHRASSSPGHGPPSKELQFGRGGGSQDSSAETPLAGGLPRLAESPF

B1 and B2 are within 1.5-fold of each other in “Assay (I) Glucagon [EC50]” value: 0.135 nM for the first, 0.094 nM for the second.

Compared with B3, B4 is 4.5-fold higher in “Assay (I) Glucagon [EC50]” value: 0.024 nM for the first, 0.109 nM for the second.

Compared with B5, B6 is 9.1-fold lower in “Assay (I) Glucagon [EC50]” value: 0.192 nM for the first, 0.021 nM for the second.

B7 and B8 are within 1.5-fold of each other in “Assay (I) Glucagon [EC50]” value: 0.019 nM for the first, 0.016 nM for the second.

Compared with B9, B10 is 27-fold higher in “Assay (I) Glucagon [EC50]” value: 0.02 nM for the first, 0.54 nM for the second.

First: B11
Second: B12
The “Assay (I) Glucagon [EC50]” value of the first is 3.2-fold higher: 0.149 nM for the first, 0.046 nM for the second.

Going from B13 to B14, the “Assay (I) Glucagon [EC50]” value rises from 0.206 nM to 0.406 nM (2-fold).

For B15, the “Assay (I) Glucagon [EC50]” value was 0.003 nM.
